Measured values published in article PMC5752445, “Secretory leukocyte protease inhibitor (SLPI) as a potential target for inhibiting metastasis of triple-negative breast cancers” (Oncotarget, 2017).

Molecular target: T1, GAL4-Rb fusion protein (pBIND-Rb) (UniProt P06400 1-928)
T1 construct: source: HEK293T, transiently transfected, mammalian two-hybrid fusion
T1 sequence (looked up): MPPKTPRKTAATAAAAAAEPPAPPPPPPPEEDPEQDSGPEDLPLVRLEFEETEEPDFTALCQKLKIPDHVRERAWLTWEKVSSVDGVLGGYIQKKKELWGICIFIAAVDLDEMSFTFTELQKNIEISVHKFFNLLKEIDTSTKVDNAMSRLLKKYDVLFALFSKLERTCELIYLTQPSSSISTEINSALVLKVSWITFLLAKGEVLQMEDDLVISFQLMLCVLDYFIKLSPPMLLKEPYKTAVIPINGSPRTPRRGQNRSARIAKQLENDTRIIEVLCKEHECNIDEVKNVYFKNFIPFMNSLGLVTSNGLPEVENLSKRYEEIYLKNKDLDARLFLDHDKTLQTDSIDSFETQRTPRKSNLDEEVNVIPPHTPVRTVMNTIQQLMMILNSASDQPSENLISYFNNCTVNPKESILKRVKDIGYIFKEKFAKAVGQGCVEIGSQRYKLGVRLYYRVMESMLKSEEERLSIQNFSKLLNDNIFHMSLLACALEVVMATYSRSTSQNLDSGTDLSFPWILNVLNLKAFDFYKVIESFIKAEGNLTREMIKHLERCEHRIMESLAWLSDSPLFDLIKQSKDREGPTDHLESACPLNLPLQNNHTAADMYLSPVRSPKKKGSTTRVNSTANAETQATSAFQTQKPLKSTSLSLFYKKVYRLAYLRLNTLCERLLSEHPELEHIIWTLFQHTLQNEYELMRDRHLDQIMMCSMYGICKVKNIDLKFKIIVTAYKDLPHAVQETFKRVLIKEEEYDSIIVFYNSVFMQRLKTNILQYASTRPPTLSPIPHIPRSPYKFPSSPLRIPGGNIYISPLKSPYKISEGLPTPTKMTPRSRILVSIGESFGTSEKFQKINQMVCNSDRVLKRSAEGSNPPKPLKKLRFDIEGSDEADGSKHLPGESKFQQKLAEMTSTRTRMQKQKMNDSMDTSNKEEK
Assay: two-hybrid; mammalian two-hybrid in HEK293T: pBIND (GAL4 DNA-binding domain) and pACT (VP16 activation domain) fusions with pG5luc reporter; luciferase read 48 h after transfection; negative controls pBIND and pACT vectors
Details: partners not purified

B1: VP16-SLPI fusion protein (pACT-SLPI) (natural protein, UniProt P03973 1-132, looked up)
chain: MKSSGLFPFLVLLALGTLAPWAVEGSGKSFKAGVCPPKKSAQCLRYKKPECQSDWQCPGKKRCCPDTCGIKCLDPVDTPNPTRRKPGKCPVTYGQCLMLNPPNFCEMDGQCKRDLKCCMGMCGKSCVSPVKA
notes: the legend names only pACT constructs of both; source: HEK293T, transiently transfected, mammalian two-hybrid fusion
**Q.** How did the “fold activation of the reporter over the negative controls” value turn out when B1 was run?
**A.** ~7 times
